In patent publication US20260055143A1, “HIGH AFFINITY VARIANTS OF SH2 DOMAINS” (Axoiya Inc., priority 2023, published 2026) one finds change in affinity data, which are given here for one molecule.

The assay addresses SLTI{pTyr}AQVQKA (Homo sapiens, UniProt Q13291). The assay can be described thus: Competitive ELISA, SH2D1B variants. It counts as binding. For orientation: In an ELISA, binding on a coated surface is turned into a signal by an enzyme label.

B1: SH2D1B: SH2D1B SH2 domain, SEQ ID 67 (protein, listed as Homo sapiens)
chain: YYHGRLTKQDCETLLLKEGVDGNFLLRDSESIPGVLCLCVSFKNIVYTYRIFREKHGYYRIQTAEGSPKQVFPSLKELISKFEKPNQGMVVHLLKPI
B1: the change in affinity entry by setting is: (superbinding grafts or the αA-2-Arg substitution) “could not be improved further”; (with either the sSrc or sFes graft) “no improvement in affinity”.
